From PMC12990809

What was measured:
Assay in all cases: pulldown
[1] = target: T1, PFI0820c (Plasmodium falciparum) (UniProt Q8I2Y5); conditions: 20 nM protein, 1.5 uM RNA pool; 20 mM HEPES pH 7.8, 70 mM KCl, 10 mM NaCl, 10% glycerol, 2 mM DTT, 0.1 ug/uL BSA; 30 min, 4 C
T1 sequence: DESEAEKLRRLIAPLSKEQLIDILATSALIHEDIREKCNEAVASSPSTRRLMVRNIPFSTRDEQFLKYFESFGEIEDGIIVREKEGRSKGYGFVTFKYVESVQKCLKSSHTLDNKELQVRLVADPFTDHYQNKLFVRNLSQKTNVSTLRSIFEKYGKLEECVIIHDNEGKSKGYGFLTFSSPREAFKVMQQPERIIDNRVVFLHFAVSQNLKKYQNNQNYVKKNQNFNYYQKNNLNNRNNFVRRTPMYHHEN

[2] = target: T2, rsp-1 (Caenorhabditis elegans) (UniProt Q23121); conditions: 20 nM protein, 1.5 uM RNA pool; 20 mM HEPES pH 7.8, 70 mM KCl, 10 mM NaCl, 10% glycerol, 2 mM DTT, 0.1 ug/uL BSA; 30 min, 4 C
T2 sequence: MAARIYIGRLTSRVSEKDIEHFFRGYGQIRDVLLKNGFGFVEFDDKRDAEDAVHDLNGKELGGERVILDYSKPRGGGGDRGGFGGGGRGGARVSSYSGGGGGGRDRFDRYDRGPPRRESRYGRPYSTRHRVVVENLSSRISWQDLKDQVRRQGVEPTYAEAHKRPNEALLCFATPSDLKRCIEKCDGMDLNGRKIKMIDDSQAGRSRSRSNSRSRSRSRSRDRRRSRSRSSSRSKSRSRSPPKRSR

[3] = target: T3, PFE0865c (Plasmodium falciparum) (UniProt Q8I3T5); conditions: 20 nM protein, 1.5 uM RNA pool; 20 mM HEPES pH 7.8, 70 mM KCl, 10 mM NaCl, 10% glycerol, 2 mM DTT, 0.1 ug/uL BSA; 30 min, 4 C
T3 sequence: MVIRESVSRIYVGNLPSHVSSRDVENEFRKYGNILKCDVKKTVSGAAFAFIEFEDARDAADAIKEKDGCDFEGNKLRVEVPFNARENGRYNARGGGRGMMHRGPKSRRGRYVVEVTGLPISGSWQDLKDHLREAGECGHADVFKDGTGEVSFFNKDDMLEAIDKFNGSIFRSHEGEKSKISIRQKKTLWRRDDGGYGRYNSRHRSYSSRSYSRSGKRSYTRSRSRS

ELAVL2 (Homo sapiens) = ELAVL2 (Homo sapiens) (UniProt Q12926); conditions: 20 nM protein, 1.5 uM RNA pool; 20 mM HEPES pH 7.8, 70 mM KCl, 10 mM NaCl, 10% glycerol, 2 mM DTT, 0.1 ug/uL BSA; 30 min, 4 C
ELAVL2 (Homo sapiens), sequence (Q12926 1-189): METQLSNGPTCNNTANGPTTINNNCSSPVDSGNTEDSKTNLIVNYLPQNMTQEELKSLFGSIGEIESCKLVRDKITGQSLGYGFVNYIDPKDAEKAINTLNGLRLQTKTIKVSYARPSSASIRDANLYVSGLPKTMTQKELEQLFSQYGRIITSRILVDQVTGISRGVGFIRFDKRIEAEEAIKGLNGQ

FUBP1 (Homo sapiens) = target: T4, FUBP1 (Homo sapiens) (UniProt A0ACI8RIE7); conditions: 20 nM protein, 1.5 uM RNA pool; 20 mM HEPES pH 7.8, 70 mM KCl, 10 mM NaCl, 10% glycerol, 2 mM DTT, 0.1 ug/uL BSA; 30 min, 4 C
T4 sequence: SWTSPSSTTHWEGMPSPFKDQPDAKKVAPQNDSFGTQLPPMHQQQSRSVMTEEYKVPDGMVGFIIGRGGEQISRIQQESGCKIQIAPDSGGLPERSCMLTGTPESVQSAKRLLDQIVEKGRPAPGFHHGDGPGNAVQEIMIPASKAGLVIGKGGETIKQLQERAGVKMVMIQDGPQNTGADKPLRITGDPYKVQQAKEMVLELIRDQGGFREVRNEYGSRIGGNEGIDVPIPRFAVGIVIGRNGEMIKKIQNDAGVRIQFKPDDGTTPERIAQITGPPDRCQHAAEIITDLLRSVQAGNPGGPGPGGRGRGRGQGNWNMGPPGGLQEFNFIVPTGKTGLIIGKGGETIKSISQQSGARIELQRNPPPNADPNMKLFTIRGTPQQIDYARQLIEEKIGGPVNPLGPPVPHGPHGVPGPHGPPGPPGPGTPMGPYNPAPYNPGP

LIN28A (Homo sapiens) = target: T5, LIN28A (Homo sapiens) (UniProt Q9H9Z2); conditions: 20 nM protein, 1.5 uM RNA pool; 20 mM HEPES pH 7.8, 70 mM KCl, 10 mM NaCl, 10% glycerol, 2 mM DTT, 0.1 ug/uL BSA; 30 min, 4 C (protocol of this paper; not …); cited from earlier work
T5 sequence: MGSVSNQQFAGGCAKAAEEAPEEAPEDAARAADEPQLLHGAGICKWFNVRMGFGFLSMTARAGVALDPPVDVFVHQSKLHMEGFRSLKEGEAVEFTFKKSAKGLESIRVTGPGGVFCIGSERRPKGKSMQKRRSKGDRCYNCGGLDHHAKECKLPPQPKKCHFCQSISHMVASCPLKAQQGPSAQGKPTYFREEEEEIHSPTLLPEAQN

[4] = target: T6, RBFOX2 I153V (Homo sapiens) (UniProt O43251); conditions: 20 nM protein, 1.5 uM RNA pool; 20 mM HEPES pH 7.8, 70 mM KCl, 10 mM NaCl, 10% glycerol, 2 mM DTT, 0.1 ug/uL BSA; 30 min, 4 C
T6 sequence: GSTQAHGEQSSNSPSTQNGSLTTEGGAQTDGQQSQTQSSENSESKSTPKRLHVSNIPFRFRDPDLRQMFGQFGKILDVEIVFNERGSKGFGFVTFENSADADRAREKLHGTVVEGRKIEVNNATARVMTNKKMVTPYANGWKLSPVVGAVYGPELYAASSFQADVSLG

[5] = target: T7, T07F10.3 (Caenorhabditis elegans) (UniProt Q22318); conditions: 20 nM protein, 1.5 uM RNA pool; 20 mM HEPES pH 7.8, 70 mM KCl, 10 mM NaCl, 10% glycerol, 2 mM DTT, 0.1 ug/uL BSA; 30 min, 4 C
T7 sequence: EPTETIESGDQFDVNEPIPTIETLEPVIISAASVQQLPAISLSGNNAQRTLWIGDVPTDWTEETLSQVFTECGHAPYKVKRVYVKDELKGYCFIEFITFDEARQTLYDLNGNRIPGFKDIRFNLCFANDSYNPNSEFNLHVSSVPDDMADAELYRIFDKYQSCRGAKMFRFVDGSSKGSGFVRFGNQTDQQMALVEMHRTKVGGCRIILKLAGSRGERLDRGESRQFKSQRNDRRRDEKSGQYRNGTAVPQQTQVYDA

Sequence: GAGAGAA [RNAcompete motif RNCMPT00793]
- binding signal (z-score (mean of top ten 7-mers)) [1]: 6.18

Sequence: GGAGGAG [RNAcompete motif RNCMPT00801]
- binding signal (z-score (mean of top ten 7-mers)) [2]: 9.02

Sequence: GAUGAAC [RNAcompete motif RNCMPT00800]
- binding signal (z-score (mean of top ten 7-mers)) [3]: 6.53

Sequence: UUAUUUU [RNAcompete motif RNCMPT00814]
- binding signal (z-score (mean of top ten 7-mers)) (ELAVL2 (Homo sapiens)): 15.1

Sequence: AUGUAU [RNAcompete motif RNCMPT00822]
- binding signal (z-score (mean of top ten 7-mers)) (FUBP1 (Homo sapiens)): 7.78

Sequence: CGGAGG [RNAcompete motif RNCMPT00162]
- binding signal (z-score (mean of top ten 7-mers)) (LIN28A (Homo sapiens)): 6.24

Sequence: UGCAUG [RNAcompete motif RNCMPT00818]
- binding signal (z-score (mean of top ten 7-mers)) [4]: 26.3

Sequence: AUAAUAA [RNAcompete motif RNCMPT00821]
- binding signal (z-score (mean of top ten 7-mers)) [5]: 8.08
